Experimental data published in PMC6327030, “Structure and inhibition mechanism of the catalytic domain of human squalene epoxidase” (Nature Communications, 2019).

What was measured:
[1] = substrate: CC(C)=CCC/C(C)=C/CC/C(C)=C/CC/C=C(\C)CC/C=C(\C)CCC=C(C)C; test: cells, lysate or membranes named; settings: other: SQLE baculosome; varied squalene, saturating FAD; pH 7.0
[2] = substrate: CC(C)=CCC/C(C)=C/CC/C(C)=C/CC/C=C(\C)CC/C=C(\C)CCC=C(C)C; test: purified protein, by the assay type; settings: varied squalene, saturating FAD

B1: baculosome-derived full-length SQLE (Homo sapiens) (protein)
chain: MWTFLGIATFTYFYKKFGDFITLANREVLLCVLVFLSLGLVLSYRCRHRNGGLLGRQQSGSQFALFSDILSGLPFIGFFWAKSPPESENKEQLEARRRRKGTNISETSLIGTAACTSTSSQNDPEVIIVGAGVLGSALAAVLSRDGRKVTVIERDLKEPDRIVGEFLQPGGYHVLKDLGLGDTVEGLDAQVVNGYMIHDQESKSEVQIPYPLSENNQVQSGRAFHHGRFIMSLRKAAMAEPNAKFIEGVVLQLLEEDDVVMGVQYKDKETGDIKELHAPLTVVADGLFSKFRKSLVSNKVSVSSHFVGFLMKNAPQFKANHAELILANPSPVLIYQISSSETRVLVDIRGEMPRNLREYMVEKIYPQIPDHLKEPFLEATDNSHLRSMPASFLPPSSVKKRGVLLLGDAYNMRHPLTGGGMTVAFKDIKLWRKLLKGIPDLYDDAAIFEAKKSFYWARKTSHSFVVNILAQALYELFSATDDSLHQLRKACFLYFKLGGECVAGPVGLLSVLSPNPLVLIGHFFAVAIYAVYFCFKSEPWITKPRALLSSGAVLYKACSVIFPLIYSEMKYMVH
Km [1]: 3.3 ± 0.7 µM | kcat [1]: 0.0233 s⁻¹ | kcat/Km [1]: 7080 M⁻¹ s⁻¹

B2: endogenous SQLE in human liver microsomes (Homo sapiens) (protein)
chain: B1 chain
Km ([2]; other: HLMs): 2.9 ± 0.2 µM

B3: recombinant N-terminally truncated SQLE (118–574) (Homo sapiens) (protein)
chain: TSSQNDPEVIIVGAGVLGSALAAVLSRDGRKVTVIERDLKEPDRIVGEFLQPGGYHVLKDLGLGDTVEGLDAQVVNGYMIHDQESKSEVQIPYPLSENNQVQSGRAFHHGRFIMSLRKAAMAEPNAKFIEGVVLQLLEEDDVVMGVQYKDKETGDIKELHAPLTVVADGLFSKFRKSLVSNKVSVSSHFVGFLMKNAPQFKANHAELILANPSPVLIYQISSSETRVLVDIRGEMPRNLREYMVEKIYPQIPDHLKEPFLEATDNSHLRSMPASFLPPSSVKKRGVLLLGDAYNMRHPLTGGGMTVAFKDIKLWRKLLKGIPDLYDDAAIFEAKKSFYWARKTSHSFVVNILAQALYELFSATDDSLHQLRKACFLYFKLGGECVAGPVGLLSVLSPNPLVLIGHFFAVAIYAVYFCFKSEPWITKPRALLSSGAVLYKACSVIFPLIYSEMKYMVH
Km ([2]; other: SQLE (118–574), pH 8.0): 1.9 ± 0.4 µM | kcat ([2]; other: SQLE (118–574), pH 8.0): 0.0348 s⁻¹ | kcat/Km ([2]; other: SQLE (118–574), pH 8.0): 18300 M⁻¹ s⁻¹
